Assay results published in publication doi:10.1101/2021.03.30.437644.
Changes are numbered by the printed parent chain.

Key:
bZIP16 [1] = target: T1, bZIP16 (Arabidopsis thaliana (Col-0), UniProt Q501B2 1-409); assay: competition EMSA
T1 sequence: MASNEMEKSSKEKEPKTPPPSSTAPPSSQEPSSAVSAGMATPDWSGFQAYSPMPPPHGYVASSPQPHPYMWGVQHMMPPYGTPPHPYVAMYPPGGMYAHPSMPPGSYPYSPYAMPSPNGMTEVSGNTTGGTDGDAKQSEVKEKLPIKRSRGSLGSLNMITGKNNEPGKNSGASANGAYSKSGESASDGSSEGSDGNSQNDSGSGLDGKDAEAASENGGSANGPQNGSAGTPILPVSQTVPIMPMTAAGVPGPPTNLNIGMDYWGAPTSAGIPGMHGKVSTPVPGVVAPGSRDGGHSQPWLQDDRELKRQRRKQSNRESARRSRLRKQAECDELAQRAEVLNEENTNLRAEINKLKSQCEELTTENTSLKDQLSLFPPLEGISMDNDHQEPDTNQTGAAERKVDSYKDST

bZIP44 [2] = target: T2, bZIP44 (Arabidopsis thaliana (Col-0), UniProt C0Z2L5 1-173); assay: competition EMSA
HYH (bZIP64) [3] = target: T3, HYH (bZIP64) (Arabidopsis thaliana (Col-0), UniProt Q8W191 1-149); assay: competition EMSA
T3 sequence: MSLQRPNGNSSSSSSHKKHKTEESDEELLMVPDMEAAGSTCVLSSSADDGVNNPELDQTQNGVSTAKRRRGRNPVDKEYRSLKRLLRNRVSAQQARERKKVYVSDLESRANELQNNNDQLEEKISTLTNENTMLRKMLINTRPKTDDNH

GBF1 (bZIP41) = target: T4, GBF1 (bZIP41) (Arabidopsis thaliana (Col-0), UniProt P42774 1-315); assay: EMSA
T4 sequence: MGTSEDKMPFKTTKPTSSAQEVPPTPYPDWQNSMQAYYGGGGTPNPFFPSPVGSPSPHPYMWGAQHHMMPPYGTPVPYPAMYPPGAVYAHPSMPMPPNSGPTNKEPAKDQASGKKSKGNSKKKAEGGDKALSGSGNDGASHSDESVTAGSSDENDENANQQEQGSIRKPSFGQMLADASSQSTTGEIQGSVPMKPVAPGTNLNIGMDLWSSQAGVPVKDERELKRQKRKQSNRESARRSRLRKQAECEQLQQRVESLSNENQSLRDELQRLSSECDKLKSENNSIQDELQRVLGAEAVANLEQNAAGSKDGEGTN

bZIP16 [4] = target: T1, bZIP16; assay: EMSA
bZIP44 [5] = target: T2, bZIP44; assay: EMSA
HYH (bZIP64) [6] = target: T3, HYH (bZIP64); assay: EMSA
SLIM1 = target: T5, SLIM1 (Arabidopsis thaliana (Col-0), UniProt O23116 1-567); assay: EMSA
T5 sequence: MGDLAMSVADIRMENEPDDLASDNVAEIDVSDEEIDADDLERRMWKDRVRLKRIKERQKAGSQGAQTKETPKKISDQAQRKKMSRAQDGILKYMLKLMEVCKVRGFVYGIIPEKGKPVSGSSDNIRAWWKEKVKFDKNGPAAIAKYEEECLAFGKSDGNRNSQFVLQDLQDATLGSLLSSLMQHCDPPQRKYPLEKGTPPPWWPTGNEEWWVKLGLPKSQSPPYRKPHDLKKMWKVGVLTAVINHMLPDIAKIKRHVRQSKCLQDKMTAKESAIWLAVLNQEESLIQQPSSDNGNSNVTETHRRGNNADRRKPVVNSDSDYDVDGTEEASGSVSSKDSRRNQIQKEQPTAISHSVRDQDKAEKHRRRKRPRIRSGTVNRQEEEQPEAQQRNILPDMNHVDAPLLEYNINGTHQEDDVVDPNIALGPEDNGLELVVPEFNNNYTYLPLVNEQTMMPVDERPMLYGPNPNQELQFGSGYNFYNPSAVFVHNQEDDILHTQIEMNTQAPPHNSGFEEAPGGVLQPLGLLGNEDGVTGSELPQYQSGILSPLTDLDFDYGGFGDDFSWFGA

T2 sequence (C0Z2L5 whole entry): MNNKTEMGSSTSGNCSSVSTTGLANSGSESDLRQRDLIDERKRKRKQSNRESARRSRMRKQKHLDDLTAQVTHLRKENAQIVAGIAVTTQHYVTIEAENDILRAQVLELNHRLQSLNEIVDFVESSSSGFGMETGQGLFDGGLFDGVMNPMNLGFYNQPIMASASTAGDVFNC

B1: Mutated probe 4 (dsDNA)
DNA 1: GACGGATAGGGTAAAAGGCACTATTTTATA
DNA 2: TATAAAATAGTGCCTTTTACCCTATCCGTC
Question: Does B1 bind (bZIP16 [1])?
Answer: no binding

Question: Does B1 bind (bZIP44 [2])?
Answer: no binding

Question: Does B1 bind (HYH (bZIP64) [3])?
Answer: no binding

B2: Probe 3 (proxSDI2) (dsDNA)
DNA 1: GACCAGCCCGCGGTATTTTAGATCCAGTTGACGATAATGAACCAAGACGA
DNA 2: TCGTCTTGGTTCATTATCGTCAACTGGATCTAAAATACCGCGGGCTGGTC
Question: Does B2 bind (GBF1 (bZIP41))?
Answer: binds

B3: Probe 4 (proxSDI2) (dsDNA)
DNA 1: B1 DNA 1 with A14C, A15G, A16T
DNA 2: B1 DNA 2 with T15A, T16C, T17G
Question: Does B3 bind (bZIP16 [4])?
Answer: binds

Question: Does B3 bind (bZIP44 [5])?
Answer: binds

Question: Does B3 bind (HYH (bZIP64) [6])?
Answer: binds

B4: Probe 2 (proxSDI2) (dsDNA)
DNA 1: GAGAGATAAAGAAGGTTTCTTCATTTAGAAACAGAGACACGAAGTTTGCG
DNA 2: CGCAAACTTCGTGTCTCTGTTTCTAAATGAAGAAACCTTCTTTATCTCTC
Question: Does B4 bind (SLIM1)?
Answer: binds

B5: Probe 1 (proxSDI1) (dsDNA)
DNA 1: GTGGTAAGAAGTCTCCAAGTGACGTGGCAGCTTCTATGAACAGAGACGAA
DNA 2: TTCGTCTCTGTTCATAGAAGCTGCCACGTCACTTGGAGACTTCTTACCAC
Question: Does B5 bind (SLIM1)?
Answer: binds
